The chains are these.
B1: full-length BICD2 tagged on the C-terminus with mini-TurboID (BICD2-mTrbo) [human] / KIF5B [human (endogenous in HEK293)] (parent complex)
chain 1: MSAPSEEEEYARLVMEAQPEWLRAEVKRLSHELAETTREKIQAAEYGLAVLEEKHQLKLQFEELEVDYEAIRSEMEQLKEAFGQAHTNHKKVAADGESREESLIQESASKEQYYVRKVLELQTELKQLRNVLTNTQSENERLASVAQELKEINQNVEIQRGRLRDDIKEYKFREARLLQDYSELEEENISLQKQVSVLRQNQVEFEGLKHEIKRLEEETEYLNSQLEDAIRLKEISERQLEEALETLKTEREQKNSLRKELSHYMSINDSFYTSHLHVSLDGLKFSDDAAEPNNDAEALVNGFEHGGLAKLPLDNKTSTPKKEGLAPPSPSLVSDLLSELNISEIQKLKQQLMQMEREKAGLLATLQDTQKQLEHTRGSLSEQQEKVTRLTENLSALRRLQASKERQTALDNEKDRDSHEDGDYYEVDINGPEILACKYHVAVAEAGELREQLKALRSTHEAREAQHAEEKGRYEAEGQALTEKVSLLEKASRQDRELLARLEKELKKVSDVAGETQGSLSVAQDELVTFSEELANLYHHVCMCNNETPNRVMLDYYREGQGGAGRTSPGGRTSPEARGRRSPILLPKGLLAPEAGRADGGTGDSSPSPGSSLPSPLSDPRREPMNIYNLIAIIRDQIKHLQAAVDRTTELSRQRIASQELGPAVDKDKEALMEEILKLKSLLSTKREQITTLRTVLKANKQTAEVALANLKSKYENEKAMVTETMMKLRNELKALKEDAATFSSLRAMFATRCDEYITQLDEMQRQLAAAEDEKKTLNSLLRMAIQQKLALTQRLELLELDHEQTRRGRAKAAPKTKPATPSL
chain 2: MADLAECNIKVMCRFRPLNESEVNRGDKYIAKFQGEDTVVIASKPYAFDRVFQSSTSQEQVYNDCAKKIVKDVLEGYNGTIFAYGQTSSGKTHTMEGKLHDPEGMGIIPRIVQDIFNYIYSMDENLEFHIKVSYFEIYLDKIRDLLDVSKTNLSVHEDKNRVPYVKGCTERFVCSPDEVMDTIDEGKSNRHVAVTNMNEHSSRSHSIFLINVKQENTQTEQKLSGKLYLVDLAGSEKVSKTGAEGAVLDEAKNINKSLSALGNVISALAEGSTYVPYRDSKMTRILQDSLGGNCRTTIVICCSPSSYNESETKSTLLFGQRAKTIKNTVCVNVELTAEQWKKKYEKEKEKNKILRNTIQWLENELNRWRNGETVPIDEQFDKEKANLEAFTVDKDITLTNDKPATAIGVIGNFTDAERRKCEEEIAKLYKQLDDKDEEINQQSQLVEKLKTQMLDQEELLASTRRDQDNMQAELNRLQAENDASKEEVKEVLQALEELAVNYDQKSQEVEDKTKEYELLSDELNQKSATLASIDAELQKLKEMTNHQKKRAAEMMASLLKDLAEIGIAVGNNDVKQPEGTGMIDEEFTVARLYISKMKSEVKTMVKRCKQLESTQTESNKKMEENEKELAACQLRISQHEAKIKSLTEYLQNVEQKKRQLEESVDALSEELVQLRAQEKVHEMEKEHLNKVQTANEVKQAVEQQIQSHRETHQKQISSLRDEVEAKAKLITDLQDQNQKMMLEQERLRVEHEKLKATDQEKSRKLHELTVMQDRREQARQDLKGLEETVAKELQTLHNLRKLFVQDLATRVKKSAEIDSDDTGGSAAQKQKISFLENNLEQLTKVHKQLVRDNADLRCELPKLEKRLRATAERVKALESALKEAKENASRDRKRYQQEVDRIKEAVRSKNMARRGHSAQIAKPIRPGQHPAASPTHPSAIRGGGAFVQNSQPVAVRGGGGKQV

The variants in this test derive from B1. Description: proximity biotinylation, streptavidin bead purification, western blot quantification; parent: 1; read off a plot.
chain 1 N188T: the ratio to parent is about 0.86.

As for chain 1 R694C, the ratio to parent was about 0.78. The figure for chain 1 R747C is about 0.5.

These data come from publication PMC12674617 (2025).
